# Data reported in article PMC3901934, “CAS directly interacts with vinculin to control mechanosensing and focal adhesion dynamics” (Cellular and Molecular Life Sciences: CMLS, 2013).
# T1: Vin WT GFP (GFP-fused vinculin WT) (UniProt Q64727 1-1066)
# T1 sequence (looked up): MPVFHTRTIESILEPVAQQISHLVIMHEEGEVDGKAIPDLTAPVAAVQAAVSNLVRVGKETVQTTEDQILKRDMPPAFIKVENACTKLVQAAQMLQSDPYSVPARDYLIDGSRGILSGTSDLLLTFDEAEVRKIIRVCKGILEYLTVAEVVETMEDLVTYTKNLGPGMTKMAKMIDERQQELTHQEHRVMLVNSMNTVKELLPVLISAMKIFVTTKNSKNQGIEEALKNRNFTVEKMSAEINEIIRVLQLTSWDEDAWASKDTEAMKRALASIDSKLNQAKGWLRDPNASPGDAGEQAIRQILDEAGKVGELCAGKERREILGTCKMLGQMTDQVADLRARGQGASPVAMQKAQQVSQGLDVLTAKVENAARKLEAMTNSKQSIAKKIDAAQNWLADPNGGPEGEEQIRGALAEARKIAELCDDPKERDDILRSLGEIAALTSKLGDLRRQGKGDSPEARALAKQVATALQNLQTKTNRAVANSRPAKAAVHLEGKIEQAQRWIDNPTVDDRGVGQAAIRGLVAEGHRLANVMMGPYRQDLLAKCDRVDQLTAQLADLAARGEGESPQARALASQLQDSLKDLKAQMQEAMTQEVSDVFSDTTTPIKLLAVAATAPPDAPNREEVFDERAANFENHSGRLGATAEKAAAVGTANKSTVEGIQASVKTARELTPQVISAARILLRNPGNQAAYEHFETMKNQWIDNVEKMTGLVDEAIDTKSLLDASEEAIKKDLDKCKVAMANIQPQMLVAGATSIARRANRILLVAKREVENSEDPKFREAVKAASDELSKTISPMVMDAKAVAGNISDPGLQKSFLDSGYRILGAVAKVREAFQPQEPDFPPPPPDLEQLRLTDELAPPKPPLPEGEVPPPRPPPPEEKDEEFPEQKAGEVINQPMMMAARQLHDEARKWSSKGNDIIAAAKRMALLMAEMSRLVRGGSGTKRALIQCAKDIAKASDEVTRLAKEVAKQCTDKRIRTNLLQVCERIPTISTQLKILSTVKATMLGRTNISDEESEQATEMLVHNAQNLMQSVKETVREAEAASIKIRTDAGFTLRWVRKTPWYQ
# Target: T1, Vin WT GFP (GFP-fused vinculin WT)
# Assay: cell-based or functional assay
binder,measurement,value
"full-length CAS (in Vin-/- MEFs) (natural protein, mouse (endogenous in MEFs), UniProt Q61140 1-874, looked up) MTVPNVLAKALYDNVAESPDELSFRKGDIMTVLERDTQGLDGWWLCSLHGRQGIVPGNRLKILVGMYDKKPVGPGPGPPATPPQPQPSLPQGVHAPVPPASQYSPMLPTAYQPQSDNVYLVPTPSKTQQGLYQAPGPNPQFQSPPAKQTSTFSKQTPHHSFPSPATDLYQVPPGPGSPAQDIYQVPPSAGIGHDIYQVPPSLDTRGWEGTKPPAKVVVPTRVGQGYVYEAAQTEQDEYDTPRHLLAPGPQDIYDVPPVRGLLPNQYGQEVYDTPPMAVKGPNGRDPLLDVYDVPPSVEKGLLSSSHHSVYDVPPSVSKDVPDGPLLREETYDVPPAFAKPKPFDPTRHPLILAAPPPDSPAAEDVYDVPPPAPDLYDVPPGLRRPGPGTLYDVPRERVLPPEVADGSVVDDGVYAVPPPAEREAPTDGKRLSASSTGSTRSSQSASSLEVVVPGREPLELEVAVESLARLQQGVSTTVAHLLDLVGSASGPGGWRGTSEPQEPPAQDLKAAVAAVHGAVHELLEFARGAVSNATHTSDRTLHAKLSRQLQKMEDVYQTLVVHGQVLDSGRGSPGFTPEDLDRLVACSRAVPEDAKQLASFLHGNASLLFRRTKAPGPGPEGSSSLHPNPTDKASSIQSRPLPSPPKFTSQDSPDGQYENSEGGWMEDYDYVHLQGKEEFEKTQKELLERGNIMRQGKGQLELQQLKQFERLEQEVSRPIDHDLANWTPAQPLVPGRTGGLGPSDRQLLLFYLEQCEANLTTLTDAVDAFFTAVATNQPPKIFVAHSKFVILSAHKLVFIGDTLSRQAKAADVRSQVTHYSNLLCDLLRGIVATTKAAALQYPSPSAAQDMVDRVKELGHSTQQFRRVLGQLAAA","fold change of CAS Y410 phosphorylation after 20 % static stretch for 10 min, Vin-/- MEFs re-expressing WT vinculin",2.4 fold
